For 16 variants, Kd results are on record in publication PMC5454376 (2017).

The chains are these.
B1: Human His-Gαi3 WT [human] / Fluorescein-labelled RGS12 GoLoco peptide (residues 1,185–1,221) [modified: 5,6-carboxyfluorescein coupled to the resin-bound peptide after chain elongation; 5,6-carboxyfluorescein coupled to the resin-bound … (parent complex)
chain 1: MGCTLSAEDKAAVERSKMIDRNLREDGEKAAKEVKLLLLGAGESGKSTIVKQMKIIHEDGYSEDECKQYKVVVYSNTIQSIIAIIRAMGRLKIDFGEAARADDARQLFVLAGSAEEGVMTPELAGVIKRLWRDGGVQACFSRSREYQLNDSASYYLNDLDRISQSNYIPTQQDVLRTRVKTTGIVETHFTFKDLYFKMFDVGGQRSERKKWIHCFEGVTAIIFCVALSDYDLVLAEDEEMNRMHESMKLFDSICNNKWFTETSIILFLNKKDLFEEKIKRSPLTICYPEYTGSNTYEEAAAYIQCQFEDLNRRKDTKEIYTHFTCATDTKNVQFVFDAVTDVIIKNNLKECGLY
chain 2: DEAEEFFELISKAQSNRADDQRGLLRKEDLVLPEFLR
B2: Human His-Gαi3 WT [human] / Fluorescein-labelled GIV peptide (residues 1,671–1,701) [modified: 5,6-carboxyfluorescein coupled to the resin-bound peptide after chain elongation; 5,6-carboxyfluorescein coupled to the resin-bound peptide … (parent complex)
chain 1: B1 chain 1
chain 2: KTGSPGSEVVTLQQFLEESNKLTSVQIKSSS

The variants in the first assay derive from B1. The assay can be described thus: fluorescence polarisation. (Polarisation of emitted light reports the rotation of a fluorescent probe.)
As a reminder, the Kd is a measure of binding affinity in units of concentration. For the variant chain 1 MGCTLSAEDKAAVERSKMIDRNLREDGEKAAKEVKLLLLGAGESGKSTIVKQMKIIHEDGYSEDECKQYKVVVYSNTIQSIIAIIRAMGRLKIDFGEAARADDARQLFVLAGSAEEGVMTPELAGVIKRLWRDGGVQACFSRSREYQLNDSASYYLNDLDRISQSNYIPTQQDVLRTRVKTTGIVETHFTFKDLYFKMFDVGGQRSERKKWIHCFEGVTAIIFCVALSDYDLVLAEDEEMNRMHESMKLFDSICNEKWFTETSIILFLNKKDLFEEKIKRSPLTICYPEYTGSNTYEEAAAYIQCQFEDLNRRKDTKEIYTHFTCATDTKNVQFVFDAVTDVIIKNNLKECGLY [chain 1 N256E], the dissociation constant (Kd) amounted to 314 nM.

Turning to chain 1 MGCTLSAEDKAAVERSKMIDRNLREDGEKAAKEVALLLLGAGESGKSTIVKQMKIIHEDGYSEDECKQYKVVVYSNTIQSIIAIIRAMGRLKIDFGEAARADDARQLFVLAGSAEEGVMTPELAGVIKRLWRDGGVQACFSRSREYQLNDSASYYLNDLDRISQSNYIPTQQDVLRTRVKTTGIVETHFTFKDLYFKMFDVGGQRSERKKWIHCFEGVTAIIFCVALSDYDLVLAEDEEMNRMHESMKLFDSICNNKWFTETSIILFLNKKDLFEEKIKRSPLTICYPEYTGSNTYEEAAAYIQCQFEDLNRRKDTKEIYTHFTCATDTKNVQFVFDAVTDVIIKNNLKECGLY [chain 1 K35A], the Kd was 152 nM.

For chain 1 MGCTLSAEDKAAVERSKMIDRNLREDGEKAAKEVKLLLLGAGESGKSTIVKQMKIIHEDGYSEDECKQYKVVVYSNTIQSIIAIIRAMGRLKIDFGEAARADDARQLFVLAGSAEEGVMTPELAGVIKRLWRDGGVQACFSRSREYQLNDSASYYLNDLDRISQSNYIPTQQDVLRTRVKTTGIVETHFTFKDLYFKMFDVGGQRSERKKWIHCFEGATAIIFCVALSDYDLVLAEDEEMNRMHESMKLFDSICNNKWFTETSIILFLNKKDLFEEKIKRSPLTICYPEYTGSNTYEEAAAYIQCQFEDLNRRKDTKEIYTHFTCATDTKNVQFVFDAVTDVIIKNNLKECGLY [chain 1 V218A], the dissociation constant (Kd) was found to be 104 nM. The same measure, in the same setting: the value for chain 1 MGCTLSAEDKAAVERSKMIDRNLREDGEKAAKEVKLLLLGAGESGKSTIVKQMKIIHEDGYSEDECKQYKVVVYSNTIQSIIAIIRAMGRLKIDFGEAARADDARQLFVLAGSAEEGVMTPELAGVIKRLWRDGGVQACFSRSREYQLNDSASYYLNDLDRISQSNYIPTQQDVLRTRVKTTGIVETHFTFKDLYFKMFDVGGQRSERKKWIHCFEGVTAIIFCVALSDYDLVLAEDEEMNRMHESMKLFDSICNNKWATETSIILFLNKKDLFEEKIKRSPLTICYPEYTGSNTYEEAAAYIQCQFEDLNRRKDTKEIYTHFTCATDTKNVQFVFDAVTDVIIKNNLKECGLY [chain 1 F259A] was 187 nM.

In another assay the parent is B2. Put plainly: fluorescence polarisation.
Take chain 1 MGCTLSAEDKAAVERSKMIDRNLREDGEKAAKEVKLLLLGAGESGKSTIVKQMKIIHEDGYSEDECKQYKVVVYSNTIQSIIAIIRAMGRLKIDFGEAARADDARQLFVLAGSAEEGVMTPELAGVIKRLWRDGGVQACFSRSREYQLNDSASYYLNDLDRISQSNYIPTQQDVLRTRVKTTGIVETHFTFKDLYFKMFDVGGQRSERKKWIHCFEGATAIIFCVALSDYDLVLAEDEEMNRMHESMKLFDSICNNKWFTETSIILFLNKKDLFEEKIKRSPLTICYPEYTGSNTYEEAAAYIQCQFEDLNRRKDTKEIYTHFTCATDTKNVQFVFDAVTDVIIKNNLKECGLY [chain 1 V218A]: the Kd worked out at 362 nM. Same read-out and setting: as for chain 1 MGCTLSAEDKAAVERSKMIDRNLREDGEKAAKEVKLLLLGAGESGKSTIVKQMKIIHEDGYSEDECKQYKVVVYSNTIQSIIAIIRAMGRLKIDFGEAARADDARQLFVLAGSAEEGVMTPELAGVIKRLWRDGGVQACFSRSREYQLNDSASYYLNDLDRISQSNYIPTQQDVLRTRVKTTGIVETHFTFKDLYFKMFDVGGQRSERKKWIHCFEGVTAIIFCVALSDYDLVLAEDEEMNRMHESMKLFDSICNNAWFTETSIILFLNKKDLFEEKIKRSPLTICYPEYTGSNTYEEAAAYIQCQFEDLNRRKDTKEIYTHFTCATDTKNVQFVFDAVTDVIIKNNLKECGLY [chain 1 K257A], the figure is 870 nM. Consider chain 1 MGCTLSAEDKAAVERSKMIDRNLREDGEKAAKEVKLLLAGAGESGKSTIVKQMKIIHEDGYSEDECKQYKVVVYSNTIQSIIAIIRAMGRLKIDFGEAARADDARQLFVLAGSAEEGVMTPELAGVIKRLWRDGGVQACFSRSREYQLNDSASYYLNDLDRISQSNYIPTQQDVLRTRVKTTGIVETHFTFKDLYFKMFDVGGQRSERKKWIHCFEGVTAIIFCVALSDYDLVLAEDEEMNRMHESMKLFDSICNNKWFTETSIILFLNKKDLFEEKIKRSPLTICYPEYTGSNTYEEAAAYIQCQFEDLNRRKDTKEIYTHFTCATDTKNVQFVFDAVTDVIIKNNLKECGLY [chain 1 L39A], for which the Kd worked out at 3080 nM. In the case of chain 1 MGCTLSAEDKAAVERSKMIDRNLREDGEKAAKEVKLLLLGAGESGKSTIVKQMKIIHEDGYSEDECKQYKVVVYSNTIQSIIAIIRAMGRLKIDFGEAARADDARQLFVLAGSAEEGVMTPELAGVIKRLWRDGGVQACFSRSREYQLNDSASYYLNDLDRISQSNYIPTQQDVLRTRVKTTGIVETHFTFKDLYFKMFDVGGQRSERKKWIHCFEGVTAIIFCVALSDYDLVLAEDEEMNRMHESMKLFDSICNNKFFTETSIILFLNKKDLFEEKIKRSPLTICYPEYTGSNTYEEAAAYIQCQFEDLNRRKDTKEIYTHFTCATDTKNVQFVFDAVTDVIIKNNLKECGLY [chain 1 W258F], the Kd was 1820 nM.

As to chain 1 MGCTLSAEDKAAVERSKMIDRNLREDGEKAAKEVKLLLLGAGESGKSTIVKQMKIIHEDGYSEDECKQYKVVVYSNTIQSIIAIIRAMGRLKIDFGEAARADDARQLFVLAGSAEEGVMTPELAGVIKRLWRDGGVQACFSRSREYQLNDSASYYLNDLDRISQSNYIPTQQDVLRTRVKTTGAVETHFTFKDLYFKMFDVGGQRSERKKWIHCFEGVTAIIFCVALSDYDLVLAEDEEMNRMHESMKLFDSICNNKWFTETSIILFLNKKDLFEEKIKRSPLTICYPEYTGSNTYEEAAAYIQCQFEDLNRRKDTKEIYTHFTCATDTKNVQFVFDAVTDVIIKNNLKECGLY [chain 1 I184A], the dissociation constant Kd is 1910 nM.

Turning to chain 1 MGCTLSAEDKAAVERSKMIDRNLREDGEKAAKEVKLLLLGAGESGKSTIVKQMKIIHEDGYSEDECKQYKVVVYSNTIQSIIAIIRAMGRLKIDFGEAARADDARQLFVLAGSAEEGVMTPELAGVIKRLWRDGGVQACFSRSREYQLNDSASYYLNDLDRISQSNYIPTQQDVLRTRVKTTGIVETHFTFKDLYFKMFDVGGQRSERKKWIHCFEGVTAIIFCVALSDYDLVLAEDEEMNRMHESMKLFDAICNNKWFTETSIILFLNKKDLFEEKIKRSPLTICYPEYTGSNTYEEAAAYIQCQFEDLNRRKDTKEIYTHFTCATDTKNVQFVFDAVTDVIIKNNLKECGLY [chain 1 S252A], the Kd amounted to 243 nM. Turning to chain 1 MGCTLSAEDKAAVERSKMIDRNLREDGEKAAKEVKLALLGAGESGKSTIVKQMKIIHEDGYSEDECKQYKVVVYSNTIQSIIAIIRAMGRLKIDFGEAARADDARQLFVLAGSAEEGVMTPELAGVIKRLWRDGGVQACFSRSREYQLNDSASYYLNDLDRISQSNYIPTQQDVLRTRVKTTGIVETHFTFKDLYFKMFDVGGQRSERKKWIHCFEGVTAIIFCVALSDYDLVLAEDEEMNRMHESMKLFDSICNNKWFTETSIILFLNKKDLFEEKIKRSPLTICYPEYTGSNTYEEAAAYIQCQFEDLNRRKDTKEIYTHFTCATDTKNVQFVFDAVTDVIIKNNLKECGLY [chain 1 L37A], the Kd amounted to 478 nM.

With chain 1 MGCTLSAEDKAAVERSKMIDRNLREDGEKAAKEVKLLLLGAGESGKSTIVKQMKIIHEDGYSEDECKQYKVVVYSNTIQSIIAIIRAMGRLKIDFGEAARADDARQLFVLAGSAEEGVMTPELAGVIKRLWRDGGVQACFSRSREYQLNDSASYYLNDLDRISQSNYIPTQQDVLRTRVKTTGIVETHFTFKDLYFKMFDVGGQRSERKKWIHCFEGVTAIIFCVALSDYDLVLAEDEEMNRMHESMKLFDSICNNKWATETSIILFLNKKDLFEEKIKRSPLTICYPEYTGSNTYEEAAAYIQCQFEDLNRRKDTKEIYTHFTCATDTKNVQFVFDAVTDVIIKNNLKECGLY [chain 1 F259A], the Kd stood at 1260 nM. The same measure, in the same setting: the value for chain 1 MGCTLSAEDKAAVERSKMIDRNLREDGEKAAKEVKALLLGAGESGKSTIVKQMKIIHEDGYSEDECKQYKVVVYSNTIQSIIAIIRAMGRLKIDFGEAARADDARQLFVLAGSAEEGVMTPELAGVIKRLWRDGGVQACFSRSREYQLNDSASYYLNDLDRISQSNYIPTQQDVLRTRVKTTGIVETHFTFKDLYFKMFDVGGQRSERKKWIHCFEGVTAIIFCVALSDYDLVLAEDEEMNRMHESMKLFDSICNNKWFTETSIILFLNKKDLFEEKIKRSPLTICYPEYTGSNTYEEAAAYIQCQFEDLNRRKDTKEIYTHFTCATDTKNVQFVFDAVTDVIIKNNLKECGLY [chain 1 L36A] was 706 nM.

In a further assay the parent is B2. The assay can be described thus: fluorescence polarisation. The source holds these as a separate data set.
Consider chain 1 MGCTLSAEDKAAVERSKMIDRNLREDGEKAAKEVKLLLLGAGESGKSTIVKQMKIIHEDGYSEDECKQYKVVVYSNTIQSIIAIIRAMGRLKIDFGEAARADDARQLFVLAGSAEEGVMTPELAGVIKRLWRDGGVQACFSRSREYQLNDSASYYLNDLDRISQSNYIPTQQDVLRTRVKTTGIVETHFTFKDLYFKMFDVGGQRSERKKWIHCFEGVTAIIFCVALSDYDLVLAEDEEMNRMHESMKLFDSICNNKWFTETSIILFLNKKDLFEEKIKRSPLTICYPEYTGSNTYEEAAAYIQCQFEDLNRAKDTKEIYTHFTCATDTKNVQFVFDAVTDVIIKNNLKECGLY [chain 1 R313A], for which the dissociation constant Kd amounted to 800 nM. The same measure, in the same setting: as for chain 1 MGCTLSAEDKAAVERSKMIDRNLREDGEKAAKEVKLLLLGAGESGKSTIVKQMKIIHEDGYSEDECKQYKVVVYSNTIQSIIAIIRAMGRLKIDFGEAARADDARQLFVLAGSAEEGVMTPELAGVIKRLWRDGGVQACFSRSREYQLNDSASYYLNDLDRISQSNYIPTQQDVLRTRVKTTGIVETHFTFKDLYFKMFDVGGQRSERKKWIHCFEGVTAIIFCVALSDYDLVLAEDEEMNRMHESMKLFDSICNNKWFTETSIILFLNKKDLFEEKIKRSPLTICYPEYTGSNTYEEAAAYIQCQFEDLNRRKDTWEIYTHFTCATDTKNVQFVFDAVTDVIIKNNLKECGLY [chain 1 K317W], the figure is 510 nM; as for chain 1 MGCTLSAEDKAAVERSKMIDRNLREDGEKAAKEVKLLLLGAGESGKSTIVKQMKIIHEDGYSEDECKQYKVVVYSNTIQSIIAIIRAMGRLKIDFGEAARADDARQLFVLAGSAEEGVMTPELAGVIKRLWRDGGVQACFSRSREYQLNDSASYYLNDLDRISQSNYIPTQQDVLRTRVKTTGIVETHFTFKDLYFKMFDVGGQRSERKKWIHCFEGVTAIIFCVALSDYDLVLAEDEEMNRMHESMKLFDSICNNKWFTETSIILFLNKKDLFEEKIKRSPLTICYPEYTGSNTYEEAAAYIQCQFEDLNRRKDTAEIYTHFTCATDTKNVQFVFDAVTDVIIKNNLKECGLY [chain 1 K317A], 590 nM.
